A word on the pKd: it is −log10 of the Kd, conventionally taken in molar units. High values mean a small Kd, low ones a large Kd. Usually koff stands for a measure of how fast the partners let go of each other. High values mean fast dissociation, low ones slow dissociation.

pKd: −log10 of the molar value.

The target in assay [1] is human ACE2 peptidase domain (amino acids 1-615 of human ACE2 with C-terminal His-10 and Avi tags) (human) (UniProt Q9BYF1).
Assay [2] shares this target. In words: biolayer interferometry (Octet RED384); assumed value, not measured.

Sequence of UniProt Q9BYF1 (Q9BYF1 18-615 limits assumed): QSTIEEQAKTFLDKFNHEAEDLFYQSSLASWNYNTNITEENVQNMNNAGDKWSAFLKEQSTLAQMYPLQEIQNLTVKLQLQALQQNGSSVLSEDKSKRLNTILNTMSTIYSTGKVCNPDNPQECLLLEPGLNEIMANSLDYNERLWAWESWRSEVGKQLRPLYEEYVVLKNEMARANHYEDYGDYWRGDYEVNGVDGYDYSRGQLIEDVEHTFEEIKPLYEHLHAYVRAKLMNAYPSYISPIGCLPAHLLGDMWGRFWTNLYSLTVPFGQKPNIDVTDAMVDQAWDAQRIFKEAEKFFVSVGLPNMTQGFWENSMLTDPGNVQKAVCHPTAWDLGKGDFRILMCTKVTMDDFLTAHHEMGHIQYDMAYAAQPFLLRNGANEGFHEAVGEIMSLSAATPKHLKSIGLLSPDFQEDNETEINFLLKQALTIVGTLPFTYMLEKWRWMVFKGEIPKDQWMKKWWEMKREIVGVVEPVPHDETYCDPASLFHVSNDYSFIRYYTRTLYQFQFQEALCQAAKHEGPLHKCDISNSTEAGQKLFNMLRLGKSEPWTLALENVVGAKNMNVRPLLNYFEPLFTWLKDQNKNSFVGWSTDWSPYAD

The substance “RBD-foldon trimer (trimerised SARS-CoV-2 spike receptor-binding domain fused to the T4 fibritin fold (other; other documents disagree on this pair)” gave a pKd in assay [1] of 11.30. Further, in assay [2], the koff is < 1e-06 s⁻¹.

The values above are taken from patent US20230075979A1.
